# Test results published in US20030044814.
# Positions count from the first letter of the chain named.
# B1: PRC17 (wild type) (protein)
# chain: MDVVEVAGSWWAQEREDIIMKYEKGHRAGLPEDKGPKPFRSYNNNVDHLGIVHETELPPLTAREAKQIRREISRKSKWVDMLGDWEKYKSSRKLIDRAYKGMPMNIRGPMWSVLLNIEEMKLKNPGRYQIMKEKGKRSSEHIQRIDRDVSGTLRKHIFFRDRYGTKQRELLHILLAYEEYNPEVGYCRDLSHIAALFLLYLPEEDAFWALVQLLASERHSLQGFHSPNGGTVQGLQDQQEHVVATSQPKTMGHQDKKDLCGQCSPLGCLIRILIDGISLGLTLRLWDVYLVEGEQALMPITRIAFKVQQKRLTKTSRCGPWARFCNRFVDTWARDEDTVLKHLRASMKKLTRKQGDLPPPAKPEQGSSASRPVPASRGGKTLCKGDRQAPPGPPARFPRPIWSASPPRAPRSSTPCPGGAVREDTYPVGTQGVPSPALAQGGPQGSWRFLQWNSMPRLPTDLDVEGPWFRHYDFRQSCWVRAISQEDQLAPCWQAEHPAERVRSAFAAPSTDSDQGTPFRARDEQPCAPTSGPCLCGLHLESSQFPPGF
# B2: mutant form PRC17 (Arg107 and Asp148 substituted by alanines) (protein)
# chain: B1 chain with R107A, D148A
# Molecular target: Rab5 (recombinant, purified from E. coli)
row,Protein,GTP hydrolysis assay (percentage of non-hydrolysed [gamma-32P]GTP remaining bound to filters)
1,B1,Addition of wild type PRC17 resulted in a 30% reduction of GTP-bound Rab5
2,B2,addition of the mutant form PRC17 had no effect on Rab5 GTP-hydrolysis
